± gives the half width of the 95% confidence interval.
What was measured:
[1] = folding stability dG unfold from trypsin proteolysis; higher = more stable
In short: (§1)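 Designed mini-proteins (under 80 residues, no cysteine) in a PA-tagged cDNA display construct were digested with trypsin and chymotrypsin. Each protease was used at 11 concentrations (threefold dilutions) plus a no-protease condition, followed by sequencing. K50 was inferred by Bayesian fitting of sequencing counts, and unfolding free energy was derived against a sequence-predicted unfolded-state K50 and a shared folded-state K50, per protease or combined. Only designs with AlphaFold2 dimer inter-PAE above 15 were kept.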

[2] = folding stability dG unfold from chymotrypsin proteolysis; higher = more stable
In short: as §1

[3] = folding stability dG unfold (combined trypsin and chymotrypsin); higher = more stable
In short: as §1

Sequence | folding stability dG unfold [1] | folding stability dG unfold [2] | folding stability dG unfold [3]
SAGKPVKVTLNVVRLPGTGELVVFAEITYPDGSTAYAVARADLATGTVHVKLFDPNGKLLAELTVTLKPSAG [r14_524_TrMRF] | 3.64 ± 0.2 kcal/mol | 4.62 ± 0.11 kcal/mol | 4.4 ± 0.096 kcal/mol
SAGKKKKFKIVSVEVEVKEVNGKLVIKMKVKDKKTGKTYEITMTLKVVDKKTKKTYTKTLKVTIKLPKSAGG [r19_129_TrROS_Hall] | 3.46 ± 0.15 kcal/mol | 4.44 ± 0.16 kcal/mol | 4.04 ± 0.4 kcal/mol
SAGGSAEIAEKNGFKITVELHRYNDYIMVEIEIRWPGGQEFTVTIMIKIKIVPPKPPVDPNDPDNNSAGGSA [r15_843_TrROS] | 4.47 ± 0.61 kcal/mol | 4.47 ± 0.12 kcal/mol | 4.48 ± 0.51 kcal/mol
SAGGGGSTPVSSYSYPLPDGSTATITISSKNPDSDIYSFTVTLSDGTTVPLDVPLSESVEEAIARVLTSAGG [r13_470_JUSTAS] | 2.31 ± 0.086 kcal/mol | 2.19 ± 0.076 kcal/mol | 2.27 ± 0.092 kcal/mol
SAGGSAGGSAGGSELIFKTEDGYYVKVKLKNGKTIVFPAENLEELKKLNVEKVEVVPAKSAGGSAGGSAGGS [r4_348_TrROS_Hall] | 0.332 ± 0.039 kcal/mol | 0.831 ± 0.042 kcal/mol | 0.684 ± 0.064 kcal/mol
SAGGPPRTVTVFVNDPDGNTYTFTFSDSVPLSTVVANVSKTLGVPLTVDSVTVHPDGTVTITVTNPGSAGGS [r8_285_TrMRF] | 4.57 ± 0.14 kcal/mol | 5 ± 0.06 kcal/mol | 4.96 ± 0.062 kcal/mol
SAGGSAGGSAGKIKIEKDKNGNYRVILKNGKVYEFKSIEEAKEELKKKFPNIKEIEIVKTSAGGSAGGSAGG [r11_806_TrROS_Hall] | 3.21 ± 0.18 kcal/mol | 4.29 ± 0.29 kcal/mol | 3.87 ± 0.3 kcal/mol
SAGGSAGGSAGGKEKKELYVVIKVDKNMTPEEIAEKLKKEFNVDKVEVEVREDGYLVVKVSAGGSAGGSAGG [r7_273_TrROS_Hall] | 1.03 ± 0.098 kcal/mol | 1.74 ± 0.084 kcal/mol | 1.62 ± 0.19 kcal/mol
SASFRLEFPGVRIEVEVEEVEVFPRPDGRPYRLYRAKIRFLDVPEELQALDFPFSLDDEIEVLFLVSLDSAG [r14_942_TrMRF] | 3.84 ± 0.07 kcal/mol | 4.36 ± 0.12 kcal/mol | 4.18 ± 0.12 kcal/mol
SAGGSAGGSAGGITPEYVERARKEAQDQYPPGKEREIIIRNPDNGKEITIRYTPDKIEIMSAGGSAGGSAGG [r7_45_TrROS] | 0.0182 ± 0.12 kcal/mol | -0.289 ± 0.16 kcal/mol | -0.147 ± 0.24 kcal/mol
SAGGSAGGSAGGMVITVPKENLKELIDALRKEGKARIVSVEEKDGLVTITVELEDEELESAGGSAGGSAGGS [r10_695_TrROS_Hall] | 3.24 ± 0.18 kcal/mol | 2.28 ± 0.075 kcal/mol | 2.95 ± 0.11 kcal/mol
SAGGSAGGSAGSIKEALKKLKPGDTVEIEITLKDGSKIKIRVKVIRDKKTKKYKVKIEIESAGGSAGGSAGG [r11_343_TrROS_Hall] | 4.16 ± 0.47 kcal/mol | 3.84 ± 0.077 kcal/mol | 3.99 ± 0.31 kcal/mol
SAGGSAMRIKVTLENGEEIEIEIEESMTEEEVKELAEELAKKLAEELGIKEVKVEVEEVELPEEEESAGGSA [r15_33_TrROS_Hall] | 1.68 ± 0.11 kcal/mol | 2.96 ± 0.054 kcal/mol | 2.53 ± 0.11 kcal/mol
SAGGSAGGSAGGGSMESVVLNVPIYEKTPDGSWRLVKELPILVPVDASPEVVEKKRKELSAGGSAGGSAGGS [r10_470_JUSTAS] | -0.41 ± 0.13 kcal/mol | -0.822 ± 0.68 kcal/mol | -0.481 ± 0.17 kcal/mol
SAGGSAGGSAGSPMSAEEVEERLREELRRELGPDYTVTVTVTEVLPEGVYVVSVTVTGPASAGGSAGGSAGG [r11_153_JUSTAS] | 2.49 ± 0.14 kcal/mol | 1.96 ± 0.028 kcal/mol | 2.21 ± 0.099 kcal/mol
SAGGSAGGSAGGSKPKKIKVETVTLEDGLTLQVVVNEDTKEKVIVLVPPSEEVTVLVEPSAGGSAGGSAGGS [r4_99_TrROS_Hall] | -0.249 ± 0.31 kcal/mol | 1.11 ± 0.076 kcal/mol | 0.648 ± 0.15 kcal/mol
SAGGSAGGSADNKPFKVEIDVEHHPPNGYYRVTIEWPDGREIVVWMPGNPDEAKDQAKELISAGGSAGGSAG [r3_143_TrROS] | 1.28 ± 0.04 kcal/mol | 1.26 ± 0.22 kcal/mol | 1.31 ± 0.16 kcal/mol
SAGGSAKVKIEVSIEVSEDGTITITVRITNENGEELTVTITIKLPPAPTVVYDSEEERKKALEALASAGGSA [r15_1018_TrROS_Hall] | 2.9 ± 0.14 kcal/mol | 2.2 ± 0.19 kcal/mol | 2.38 ± 0.26 kcal/mol
SAGGKDVKPIPVRIKIWYPDDGKPIHEIPVSAYQMDDKIHITFESPELLQFAKELAQKKGFKVEIEPSAGGS [r16_327_TrROS] | 0.513 ± 0.047 kcal/mol | 0.751 ± 0.12 kcal/mol | 0.695 ± 0.11 kcal/mol
SAGDRIRITMPFDDLRKIMDEIGYPPEQMTAEEFADRLAEHFPGVKVDIEMDREDGYFTVEIELPPGMKSAG [r5_264_TrROS] | 1.43 ± 0.062 kcal/mol | 1.43 ± 0.041 kcal/mol | 1.42 ± 0.18 kcal/mol
SAGGSAGGSFPLDEIRKFAKKLGNPFIEIEPVKPHVYRIKIYNKKNGKKKEFPIYLDEDGKIMSAGGSAGGS [r12_170_TrROS] | 0.992 ± 0.053 kcal/mol | 1.27 ± 0.15 kcal/mol | 1.16 ± 0.13 kcal/mol

Sequence | folding stability dG unfold [1] | folding stability dG unfold [2] | folding stability dG unfold [3]
SAGGSAGGSAGDLLKEALEEAKKAGIKTATITVEVDGKLYTLTVKLEPKPPPKEVKVEKKSAGGSAGGSAGG [r17_475_TrROS_Hall] | -0.977 ± 0.51 kcal/mol | 0.814 ± 0.17 kcal/mol | 0.526 ± 0.38 kcal/mol
SAGGSAGGSMKLVTVKMKRPNGPVELTPVLPVDPSETLEEVKERVLELYPGAEITEITVTPDESAGGSAGGS [r12_738_JUSTAS] | -0.358 ± 0.11 kcal/mol | 0.708 ± 0.15 kcal/mol | 0.457 ± 0.15 kcal/mol
SSPMTVEELLERHPNLLVVRLPDGTVYLFDPEKETLYTVTPGTGEVTVTPLSLEELLALLPAAGHEVLPLSA [r9_721_JUSTAS] | 1.74 ± 0.1 kcal/mol | 2.14 ± 0.092 kcal/mol | 1.99 ± 0.11 kcal/mol
SAGGSAKKTLKIKVKTPKGGLKTIEIPDSVKKIDIIPGKDYVKIIIYNPKTKKKIELPPFKVIEISSAGGSA [r15_133_TrMRF] | 1.26 ± 0.047 kcal/mol | 2.01 ± 0.031 kcal/mol | 1.79 ± 0.086 kcal/mol
SAGGVPVPPEVEYPISPEAVELAEKLAPELGAKNFKVTVVSVEPGYITVEITLPDTGKTVTVTIPLGSAGGS [r16_281_JUSTAS] | 1.5 ± 0.041 kcal/mol | 1.987 ± 0.015 kcal/mol | 1.82 ± 0.053 kcal/mol
SAGGSAGGSAGGNVRNLDISLDPEEGTIKIKATLPENGQTWEITIPVQIPLPPPPPGDNSAGGSAGGSAGGS [r10_331_TrROS] | 0.49 ± 0.1 kcal/mol | 0.502 ± 0.12 kcal/mol | 0.424 ± 0.29 kcal/mol
SAGGSAGGSAGKLYIIRIKGKKIILSEDEVEKLKKKYPNAEIIPFKSKEDAEKALKKLKESAGGSAGGSAGG [r11_60_TrROS_Hall] | 2.16 ± 0.057 kcal/mol | 2.75 ± 0.079 kcal/mol | 2.52 ± 0.13 kcal/mol
SAGGSAGGSAMKVITLPENADINKVIEAVEAGSPILVKIVDPKSSKTTDLPLPSKEAVEKLSAGGSAGGSAG [r3_362_JUSTAS] | -0.468 ± 0.17 kcal/mol | -0.394 ± 0.18 kcal/mol | -0.33 ± 0.15 kcal/mol
SAGGSAGGSKTLIIKIKVEGLSEEEIAEELAKKLQEETGLKIKSVKIEKKDGYLYIEVEVEEPSAGGSAGGS [r12_781_TrROS_Hall] | 3.86 ± 0.4 kcal/mol | 3.96 ± 0.17 kcal/mol | 4.15 ± 0.21 kcal/mol
SAGGSKVEIWIRFGDYWIRITVEPKPNGRKKVSVEVYNPNGEPMWSITFEIDPDGKIKDIDITPMPSAGGSA [r2_260_TrROS] | 4.53 ± 0.23 kcal/mol | 5.03 ± 0.14 kcal/mol | 5.01 ± 0.13 kcal/mol
SAGGSAGGSYLDPNKVYLVETEVVGDKVVFTLRDPETGETFVLEADASKEVLKPGDRVLALVASAGGSAGGS [r12_525_TrMRF] | 1.47 ± 0.047 kcal/mol | 1.97 ± 0.065 kcal/mol | 1.82 ± 0.12 kcal/mol
SAGGPYEFWFTITIDYPDLTPKQAVEEARKILRKLGFEITDIPVQVDPDPGWITVMARITIRPPEDASAGGS [r16_287_TrROS] | 3.31 ± 0.063 kcal/mol | 3.98 ± 0.044 kcal/mol | 3.58 ± 0.16 kcal/mol
SAGGMFLRIEPEDGSRFEIPLNDPSLPLEVVVGLVSKYMDGPVKLKLTLVLPEEEVEYEYEIPLEKKSAGGS [r16_216_TrMRF] | 1.24 ± 0.028 kcal/mol | 2.37 ± 0.061 kcal/mol | 1.98 ± 0.098 kcal/mol
SAGGGSSSSSLTFTYDPATGKVLGSESFTIPSPSGEPRTNVLTLVEKNPSGTLKTTVLTRPVPPTLSSAGGS [r16_595_JUSTAS] | 1.55 ± 0.1 kcal/mol | 2.62 ± 0.096 kcal/mol | 2.66 ± 0.35 kcal/mol
SAGGSAGGSAGGSPLVIKVDGPAEKLIEEIKKLFPNAKVLSIETHPDGGVTLVVEKIDESAGGSAGGSAGGS [r4_95_TrMRF] | 1.38 ± 0.07 kcal/mol | 2.35 ± 0.069 kcal/mol | 2.03 ± 0.15 kcal/mol
SAGGSAGGSAGGSMTLKVTLTPPSGEVVEFEITEEELDKLKEELPEDWSISTEPIPELESAGGSAGGSAGGS [r4_63_JUSTAS] | 2.43 ± 0.07 kcal/mol | 2.132 ± 0.016 kcal/mol | 2.29 ± 0.051 kcal/mol
SAGGSAGGSAGVITIPLDDINDLPPGFKVKPNNNSMMIEDGDNPIHIPPGEPVQIEPPDESAGGSAGGSAGG [r17_91_TrROS] | 0.65 ± 0.1 kcal/mol | 0.346 ± 0.097 kcal/mol | 0.466 ± 0.22 kcal/mol
SAGPEKPFDIVIVEVKSMEVHEDPNGRRSVRIPVVARIPGGYYIRFEIWINPPTGNVSIDWEIVPLDDSAGG [r19_320_TrROS] | 2.73 ± 0.047 kcal/mol | 4.21 ± 0.12 kcal/mol | 3.82 ± 0.14 kcal/mol
SAGGMLGFRAETDLFVEPIPPGAEVEPLRIGDRLLLIVRHPDGSYTINLFTPVRPLPVPPAFSTANAASAGG [r13_804_TrMRF] | 1.6 ± 0.036 kcal/mol | 1.64 ± 0.069 kcal/mol | 1.68 ± 0.051 kcal/mol
SAGGSAGGSAEELAKKLAEELRKEHNLEVTVEEVELKEEEIPGLKFKPGQKLLVITVKKKDSAGGSAGGSAG [r3_229_TrROS_Hall] | 0.901 ± 0.033 kcal/mol | 0.227 ± 0.069 kcal/mol | 0.604 ± 0.13 kcal/mol
SAGGSAGGSAKKTLYKVKITKKNKNGEKIEIVVPKSEDEIKEEAKKKFGIDKIEIEPVELKSAGGSAGGSAG [r3_220_TrROS_Hall] | -0.305 ± 0.16 kcal/mol | 0.466 ± 0.19 kcal/mol | 0.182 ± 0.17 kcal/mol

— the supplement of paper PMC12764529
